± gives the standard error. This sample holds only a part of the variants without activity. Some results are limits rather than exact numbers.

Sequences and labels used below:
B1: glmS ribozyme (parent)
chain: AUAAAAGCGCCAGAACUACAGAAAUGUAGUUGACGAGGAGGAGGUUUAUCGAAUUUUCGGCGGAUGCCUCCAAA

One series covers variants of B1. Nature of the series: self-cleavage kobs at 2500 uM GlcN6P; higher = faster cleavage; RNA array. The conditions noted are these: with glucosamine-6-phosphate. In short, it runs like this: (§1)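 Tiles of sequenced MiSeq chips were imaged over ~14 h at 37 °C. On them, barcoded ribozyme variants had been transcribed in situ by E. coli RNA polymerase and were tracked via a hybridised Cy3 probe while glucosamine-6-phosphate (40 μM to 10 mM) in HEPES/KCl/Mg(OAc)2 buffer flowed in. Per-tile medians, normalised to baseline and to non-cleaving reference variants, were fit to one- or two-exponential decays for kobs, and weighted Michaelis–Menten fits gave kcat and KM.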
For the variant G41U U54A U55A U56A C67U, the “self-cleavage kobs at 2500 uM GlcN6P” value is less than 1e-05 s⁻¹.

Take G7U A12C A36C A39U U47C: the “self-cleavage kobs at 2500 uM GlcN6P” value is less than 1e-05 s⁻¹.

For G41U U45G U49A, the “self-cleavage kobs at 2500 uM GlcN6P” value is less than 1e-05 s⁻¹.

As for C34U G35A G38U G43A, the “self-cleavage kobs at 2500 uM GlcN6P” value is less than 1e-05 s⁻¹.

Take U30G U46C C50A A64C: the “self-cleavage kobs at 2500 uM GlcN6P” value was less than 1e-05 s⁻¹.

Turning to G7A G41C C67U, the “self-cleavage kobs at 2500 uM GlcN6P” value is less than 1e-05 s⁻¹.

Take G37C G44C C67U: the “self-cleavage kobs at 2500 uM GlcN6P” value is less than 1e-05 s⁻¹.

For the variant A12G C16G C68G, the “self-cleavage kobs at 2500 uM GlcN6P” value was found to be 0.00102 ± 0.0005 s⁻¹.

As to A39G A42U C68U, the “self-cleavage kobs at 2500 uM GlcN6P” value is 0.000999 ± 0.00036 s⁻¹.

With G9U U55C U56G C67U, the “self-cleavage kobs at 2500 uM GlcN6P” value was less than 1e-05 s⁻¹.

Regarding C10U A14C G66C, the “self-cleavage kobs at 2500 uM GlcN6P” value is less than 1e-05 s⁻¹.

Consider A36C G44A C70A, for which the “self-cleavage kobs at 2500 uM GlcN6P” value is less than 1e-05 s⁻¹.

Consider C10U G43A C50U G51C, for which the “self-cleavage kobs at 2500 uM GlcN6P” value was less than 1e-05 s⁻¹.

Take A36U U45G C61G: the “self-cleavage kobs at 2500 uM GlcN6P” value is less than 1e-05 s⁻¹.

As for A12G A39G C67A, the “self-cleavage kobs at 2500 uM GlcN6P” value is 0.000177 ± 3.7e-05 s⁻¹.

On to A48G U56A U69G, for which the “self-cleavage kobs at 2500 uM GlcN6P” value was 7.7e-05 ± 2.2e-05 s⁻¹.

With U31G U55A C67A, the “self-cleavage kobs at 2500 uM GlcN6P” value turned out to be 0.00299 ± 0.00085 s⁻¹.

For A15U U30C U31C G40U A64U G66A, the “self-cleavage kobs at 2500 uM GlcN6P” value was less than 1e-05 s⁻¹.

For the variant A12G G38C U45A C67A, the “self-cleavage kobs at 2500 uM GlcN6P” value was less than 1e-05 s⁻¹.

U31C G43C U65G: the “self-cleavage kobs at 2500 uM GlcN6P” value was less than 1e-05 s⁻¹.

Take C11G G37A U49G G60U: the “self-cleavage kobs at 2500 uM GlcN6P” value is less than 1e-05 s⁻¹.

A6C A12U C50G G51C U54A: the “self-cleavage kobs at 2500 uM GlcN6P” value was less than 1e-05 s⁻¹.

For the variant C16U U30A U65A, the “self-cleavage kobs at 2500 uM GlcN6P” value was 8.89e-05 ± 1.9e-05 s⁻¹.

For C10A C16G U31C G37C C58A G59U, the “self-cleavage kobs at 2500 uM GlcN6P” value is less than 1e-05 s⁻¹.

G7U C10G A12C A42C G62U: the “self-cleavage kobs at 2500 uM GlcN6P” value was less than 1e-05 s⁻¹.

For A6U G44U U46A A52U U56G C58U C70U, the “self-cleavage kobs at 2500 uM GlcN6P” value was less than 1e-05 s⁻¹.

For C16G G38A U47C G62A, the “self-cleavage kobs at 2500 uM GlcN6P” value is less than 1e-05 s⁻¹.

On to G59U U65A C68U, for which the “self-cleavage kobs at 2500 uM GlcN6P” value was less than 1e-05 s⁻¹.

As for A39C U54A U55C, the “self-cleavage kobs at 2500 uM GlcN6P” value was 0.00249 ± 0.00052 s⁻¹.

For A42U G44U U65C, the “self-cleavage kobs at 2500 uM GlcN6P” value was less than 1e-05 s⁻¹.

Turning to A6G U54C G63C, the “self-cleavage kobs at 2500 uM GlcN6P” value was less than 1e-05 s⁻¹.

As for A39U U46G U56G, the “self-cleavage kobs at 2500 uM GlcN6P” value was 0.000873 ± 0.00027 s⁻¹.

A15G G35C A64G: the “self-cleavage kobs at 2500 uM GlcN6P” value is less than 1e-05 s⁻¹.

As to C8A G40U A53G, the “self-cleavage kobs at 2500 uM GlcN6P” value was less than 1e-05 s⁻¹.

G13A U30G A53U: the “self-cleavage kobs at 2500 uM GlcN6P” value was 0.000141 ± 4.4e-05 s⁻¹.

As to G7A G29U G59A G62U, the “self-cleavage kobs at 2500 uM GlcN6P” value was less than 1e-05 s⁻¹.

On to C8U A39U A64U, for which the “self-cleavage kobs at 2500 uM GlcN6P” value is less than 1e-05 s⁻¹.

For the variant A14C A52G, the “self-cleavage kobs at 2500 uM GlcN6P” value came to 0.000215 ± 3.3e-05 s⁻¹.

As to A15U G41A C50G C71U, the “self-cleavage kobs at 2500 uM GlcN6P” value was less than 1e-05 s⁻¹.

On to G7A A53U G59A C70U, for which the “self-cleavage kobs at 2500 uM GlcN6P” value was less than 1e-05 s⁻¹.

As to G9A C50G C67G, the “self-cleavage kobs at 2500 uM GlcN6P” value came to 9.36e-05 ± 2.6e-05 s⁻¹.

Turning to G40C G60A G66A, the “self-cleavage kobs at 2500 uM GlcN6P” value is less than 1e-05 s⁻¹.

For the variant A24C G40U, the “self-cleavage kobs at 2500 uM GlcN6P” value is 0.00193 ± 0.0007 s⁻¹.

Take U30G G43C A48C: the “self-cleavage kobs at 2500 uM GlcN6P” value was less than 1e-05 s⁻¹.

For A12G U30G U45G U46A C68U, the “self-cleavage kobs at 2500 uM GlcN6P” value was less than 1e-05 s⁻¹.

For the variant C16U A42G U57C, the “self-cleavage kobs at 2500 uM GlcN6P” value amounted to 0.000189 ± 6.6e-05 s⁻¹.

For A15C U69A, the “self-cleavage kobs at 2500 uM GlcN6P” value turned out to be 4.7e-05 ± 1.5e-05 s⁻¹.

In the case of G7C G40U C50G G66C, the “self-cleavage kobs at 2500 uM GlcN6P” value is less than 1e-05 s⁻¹.

In the case of G37U G41U U47G G63U, the “self-cleavage kobs at 2500 uM GlcN6P” value is less than 1e-05 s⁻¹.

Turning to C10G C50G U55A, the “self-cleavage kobs at 2500 uM GlcN6P” value is 6.66e-05 ± 2.3e-05 s⁻¹.

Turning to C16U G41C C70A, the “self-cleavage kobs at 2500 uM GlcN6P” value was 0.000347 ± 0.00017 s⁻¹.

Regarding C8U U30A U46G, the “self-cleavage kobs at 2500 uM GlcN6P” value is less than 1e-05 s⁻¹.

As to A14C C50A A53U C70G, the “self-cleavage kobs at 2500 uM GlcN6P” value stood at 4.72e-05 ± 2e-05 s⁻¹.

As to C11A U30G A53U, the “self-cleavage kobs at 2500 uM GlcN6P” value amounted to 0.00017 ± 4.1e-05 s⁻¹.

Consider C34U A52U A53G A64U C70U, for which the “self-cleavage kobs at 2500 uM GlcN6P” value was less than 1e-05 s⁻¹.

Take C8A U31C G38A A64C: the “self-cleavage kobs at 2500 uM GlcN6P” value was less than 1e-05 s⁻¹.

Consider U30A U31G A48C, for which the “self-cleavage kobs at 2500 uM GlcN6P” value was found to be 6.79e-05 ± 1.6e-05 s⁻¹.

On to C34A A39U C50G C67G, for which the “self-cleavage kobs at 2500 uM GlcN6P” value turned out to be 0.000353 ± 6.7e-05 s⁻¹.

With A15G G38U G60A, the “self-cleavage kobs at 2500 uM GlcN6P” value was less than 1e-05 s⁻¹.

As to G38A U54C G63U, the “self-cleavage kobs at 2500 uM GlcN6P” value was less than 1e-05 s⁻¹.

Take G35C G38U G59C U69G: the “self-cleavage kobs at 2500 uM GlcN6P” value is less than 1e-05 s⁻¹.

Consider A15C A39U G59C U69C, for which the “self-cleavage kobs at 2500 uM GlcN6P” value is less than 1e-05 s⁻¹.

Turning to G7C G29U G32C A33G, the “self-cleavage kobs at 2500 uM GlcN6P” value was less than 1e-05 s⁻¹.

For G40C U47G G51A, the “self-cleavage kobs at 2500 uM GlcN6P” value was less than 1e-05 s⁻¹.

Consider G29A U47A A52U, for which the “self-cleavage kobs at 2500 uM GlcN6P” value is 4.18e-05 ± 1.7e-05 s⁻¹.

Turning to U45G U47A, the “self-cleavage kobs at 2500 uM GlcN6P” value was determined as 0.00816 ± 0.0022 s⁻¹.

C10U G43C C61U C70U: the “self-cleavage kobs at 2500 uM GlcN6P” value was less than 1e-05 s⁻¹.

Consider U31C G32U U54C C58A, for which the “self-cleavage kobs at 2500 uM GlcN6P” value was determined as 0.000137 ± 4.2e-05 s⁻¹.

For the variant C16A G66A C68U, the “self-cleavage kobs at 2500 uM GlcN6P” value was found to be 6.12e-05 ± 1.5e-05 s⁻¹.

U45A A48U: the “self-cleavage kobs at 2500 uM GlcN6P” value was found to be 0.0011 ± 0.00038 s⁻¹.

As to C11G A12G G29A U31G G43U U49A G51U U54C C61U, the “self-cleavage kobs at 2500 uM GlcN6P” value was less than 1e-05 s⁻¹.

As to G9C C50G U55A U57G C70U, the “self-cleavage kobs at 2500 uM GlcN6P” value was 0.000283 ± 0.0001 s⁻¹.

As for C34A G44C G59U G63A, the “self-cleavage kobs at 2500 uM GlcN6P” value is less than 1e-05 s⁻¹.

For the variant G63C G66C C67G, the “self-cleavage kobs at 2500 uM GlcN6P” value is less than 1e-05 s⁻¹.

Turning to C10A G40A U55A, the “self-cleavage kobs at 2500 uM GlcN6P” value was less than 1e-05 s⁻¹.

On to A6C A33U A52G U57C C70U, for which the “self-cleavage kobs at 2500 uM GlcN6P” value is less than 1e-05 s⁻¹.

As to A6C C11U G21U G32C G41U G43U U65G C68U U69G, the “self-cleavage kobs at 2500 uM GlcN6P” value is less than 1e-05 s⁻¹.

G13A U46C G60A: the “self-cleavage kobs at 2500 uM GlcN6P” value is less than 1e-05 s⁻¹.

With A39C U56C U65G, the “self-cleavage kobs at 2500 uM GlcN6P” value amounted to 8.8e-05 ± 1.3e-05 s⁻¹.

Take A15U U30C C61G: the “self-cleavage kobs at 2500 uM GlcN6P” value was less than 1e-05 s⁻¹.

The variants in the next series derive from B1. Nature of the series: self-cleavage kobs at 10000 uM GlcN6P; higher = faster cleavage; RNA array. The conditions noted are these: with glucosamine-6-phosphate. In short, it runs like this:
as §1
With A6G A12U C16U, the “self-cleavage kobs at 10000 uM GlcN6P” value was determined as 5.43e-05 ± 2.1e-05 s⁻¹.

Regarding G9U U55C U56G C67U, the “self-cleavage kobs at 10000 uM GlcN6P” value is less than 1e-05 s⁻¹.

In the case of C10A U31C G38U A48C, the “self-cleavage kobs at 10000 uM GlcN6P” value was less than 1e-05 s⁻¹.

Turning to G44A A64G, the “self-cleavage kobs at 10000 uM GlcN6P” value was determined as 3.74e-05 ± 1.4e-05 s⁻¹.

With A36C U54C G60U C61A G62U, the “self-cleavage kobs at 10000 uM GlcN6P” value was less than 1e-05 s⁻¹.

Turning to A14C A52G, the “self-cleavage kobs at 10000 uM GlcN6P” value worked out at 0.000282 ± 5.3e-05 s⁻¹.

With C16U A42G U57C, the “self-cleavage kobs at 10000 uM GlcN6P” value was 0.00018 ± 4.1e-05 s⁻¹.

As for G9C C50G U55A U57G C70U, the “self-cleavage kobs at 10000 uM GlcN6P” value amounted to 0.000426 ± 0.00018 s⁻¹.

The record behind these values is the supplement of paper PMC7125110.
